Values quoted from earlier work in patent publication US20150246140A1, “COMPOSITIONS AND METHODS FOR MODULATING SLEEP AND WAKEFULNESS” (California Institute of Technology, priority 2014, published 2015).

Columns and labels:
NPR-22 = molecular target: T1, NPR-22 (Caenorhabditis elegans, UniProt Q59E83); conditions: FLP-13 peptides P1-P9, FIG. 6 legend
T1 sequence (Q59E83 1-434): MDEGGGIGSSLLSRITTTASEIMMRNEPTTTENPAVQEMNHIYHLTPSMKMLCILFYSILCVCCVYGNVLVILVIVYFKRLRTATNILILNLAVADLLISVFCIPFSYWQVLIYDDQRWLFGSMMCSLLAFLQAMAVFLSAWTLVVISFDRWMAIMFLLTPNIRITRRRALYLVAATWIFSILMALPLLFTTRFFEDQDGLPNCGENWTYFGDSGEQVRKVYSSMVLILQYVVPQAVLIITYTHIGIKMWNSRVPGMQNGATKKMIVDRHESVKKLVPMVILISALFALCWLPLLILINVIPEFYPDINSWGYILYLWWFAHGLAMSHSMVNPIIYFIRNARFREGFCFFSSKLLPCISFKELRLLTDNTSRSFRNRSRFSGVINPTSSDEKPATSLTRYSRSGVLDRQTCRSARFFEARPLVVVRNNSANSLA

A. suum muscle strips = conditions: FLP-13 peptides P1-P9, FIG. 6 legend

For “ASSAPLIRF [C. elegans RFamide peptide of gene flp-13]”, the “activate calcium response via NPR-22 using the fluorescence assay” value (NPR-22) is given as “can activate calcium response”.

In the case of “APEASPLIRF [C. elegans RFamide peptide of gene flp-13; P3 and P5 are repeated copies]”, the “effect on A. suum muscle strips” value (A. suum muscle strips) is listed as “inhibitory effects”.

For “AADGAPLIRF [C. elegans RFamide peptide of gene flp-13; P2 and P4 are repeated copies]”, the “activate calcium response via NPR-22 using the fluorescence assay” value (NPR-22) is listed as “can activate calcium response” and the “effect on A. suum muscle strips” value (A. suum muscle strips) is listed as “inhibitory effects”.

For “SPSAVPLIRF [C. elegans RFamide peptide of gene flp-13]”, the “activate calcium response via NPR-22 using the fluorescence assay” value (NPR-22) is listed as “can activate calcium response” and the “effect on A. suum muscle strips” value (A. suum muscle strips) is listed as “excitatory effect”.

For “SAAAPLIRF [C. elegans RFamide peptide of gene flp-13]”, the “activate calcium response via NPR-22 using the fluorescence assay” value (NPR-22) is listed as “can activate calcium response”.

For “ASPSAPLIRF [C. elegans RFamide peptide of gene flp-13]”, the “activate calcium response via NPR-22 using the fluorescence assay” value (NPR-22) is listed as “can activate calcium response”.
